Test results taken from US20200362026A1 (INSTITUTE FOR RESEARCH IN BIOMEDICINE, published 2020).

T1: mouse GM-CSF (mouse, UniProt P01587 18-141)
T1 sequence (looked up): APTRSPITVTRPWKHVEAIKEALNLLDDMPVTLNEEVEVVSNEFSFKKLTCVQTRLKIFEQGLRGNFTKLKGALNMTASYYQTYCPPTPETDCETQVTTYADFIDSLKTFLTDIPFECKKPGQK

T2: rat GM-CSF (rat, UniProt P48750 18-144)
T2 sequence (looked up): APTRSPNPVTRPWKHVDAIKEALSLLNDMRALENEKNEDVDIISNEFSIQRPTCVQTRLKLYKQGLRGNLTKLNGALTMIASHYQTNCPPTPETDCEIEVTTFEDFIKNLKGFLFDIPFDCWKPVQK

T3: FcγRIIb (UniProt P31994 43-310, limits assumed)
T3 construct: whole, on cells; also called FcgRIIb; Fcγ receptor IIb
T3 sequence (looked up): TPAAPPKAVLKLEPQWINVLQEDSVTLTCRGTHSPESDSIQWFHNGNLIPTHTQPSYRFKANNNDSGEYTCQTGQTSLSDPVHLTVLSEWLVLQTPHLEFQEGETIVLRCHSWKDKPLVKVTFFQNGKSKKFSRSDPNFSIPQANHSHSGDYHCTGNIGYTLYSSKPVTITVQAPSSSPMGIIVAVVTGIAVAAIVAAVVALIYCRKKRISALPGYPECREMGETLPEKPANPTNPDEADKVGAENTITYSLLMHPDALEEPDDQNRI

T4: FcγRIIa (UniProt P12318 34-317, limits assumed)
T4 construct: whole, on cells; also called FcgRIIa; Fcγ receptor IIa
T4 sequence (looked up): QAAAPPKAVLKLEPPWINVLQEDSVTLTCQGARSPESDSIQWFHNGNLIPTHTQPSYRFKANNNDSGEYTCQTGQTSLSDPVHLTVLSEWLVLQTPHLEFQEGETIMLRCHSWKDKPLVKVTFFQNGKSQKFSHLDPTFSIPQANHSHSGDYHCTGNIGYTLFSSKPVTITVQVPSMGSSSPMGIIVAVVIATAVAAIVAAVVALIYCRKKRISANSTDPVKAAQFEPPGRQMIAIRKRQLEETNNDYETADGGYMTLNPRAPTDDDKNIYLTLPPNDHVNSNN

B1: GCA21 (antibody, IgG1, V domains shown)
VH: QVQLMESGGGVVQPGRSLRLSCSAFGFTFSNYPMHWVRQAPGKGLEWVAIILPDGNRKNYGRSVTGRFTISRDNSNNSLYLQMNNLTTEDTAMYYCTRDGTYYSNGGVYQTYRRFFDFWGRGTLVTVSS
VL: DIQMTQSPSTLSTSVGDRVTITCRASQNILNWLAWYQQKPGNAPNLLIYKASDLQSGVPSRFSGSGSGTEFTLTISSLQPDDFATYYCQHYNSYPLTFGGGTKVEIKR
notes: also called GCA21 antibody
B2: GCB59 (antibody, IgG1, V domains shown)
VH: EVQLVESGGDLVKAGGSLRLSCAVSGLSFSSSGMNWVRQAPGKGLEWISSISGSQNYKYYADSVKGRFVVSRDNARNFLYLQMDSLRAEDTAVYFCVGGFPYWLPPSDFSGFHVWGQGTTVTVSS
VL: SYVLTQPPSVSVAPGQTASLTCGGTNIGSKSVHWYQQKAGQAPVLVVYADNDRPSGVPERFSGSNSGNTATLTISRVEAEDESDYFCQVWDGNTDHVVFGGGTKLTVLG
notes: also called GCB59 antibody
B3: GCE536 (antibody, human IgG1, kappa, V domains shown)
VH: QLQLVQSGTEVKKPGASVKVSCKSSGYVFTSYYLVWVRQAPGQGLEWMATISPGDVNTSYEQRFQGRVTVTTDASTNTVDMELRSLRSEDTAVYYCARGPRSKPPYLYFALDVWGQGTAVTVSS
VL: EIVLTQSPGTLSLSPGETAILSCRASQSVSSSLLAWYQQKPGQAPRLLIYGASNRATGIRGRFSGSGSGTDFTLTISRLEPEDFVLYYCQHYGSRVTFGQGTKLEIKR
notes: also called GCE536 antibody
B4: Ts1GC1 trispecific antibody (antibody, human IgG1, kappa)
heavy: not shown
light: DIQMTQSPSTLSTSVGDRVTITCRASQNILNWLAWYQQKPGNAPNLLIYKASDLQSGVPSRFSGSGSGTEFTLTISSLQPDDFATYYCQHYNSYPLTFGGGTKVEIKRTVAAPSVFIFPPSDEQLKSGTASVVCLLNNFYPREAKVQWKVDNALQSGNSQESVTEQDSKDSTYSLSSTLTLSKADYEKHKVYACEVTHQGLSSPVTKSFNRGEC
notes: Trispecific hexavalent IgG1, construct type Ts1; specificities GCA21 + GCA7 + GCB59; also called TsGC1
B5: GCA7 (antibody, human IgG1, kappa, V domains shown)
VH: GVQLVQSGGGLVQPGGSLRLSCAASGFTVSTNYMSWVRQAPGKGLEWVSILYAGGVTRYADSVKTRFTISRDNSKNTLFLQMNALSAEDTAIYYCAKHYDSGYSTIDHFDSWGQGTLVTVSS
VL: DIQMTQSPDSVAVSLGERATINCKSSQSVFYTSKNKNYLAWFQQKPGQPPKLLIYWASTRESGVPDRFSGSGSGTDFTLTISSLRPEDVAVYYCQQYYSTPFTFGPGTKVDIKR
notes: also called GCA7 antibody
B6: Namilumab (antibody, V domains shown)
VH: QVQLVQSGAEVKKPGASVKVSCKAFGYPFTDYLLHWVRQAPGQGLEWVGWLNPYSGDTNYAQKFQGRVTMTRDTSISTAYMELSRLRSDDTAVYYCTRTTLISVYFDYWGQGTMVTVSS
VL: DIQMTQSPSSVSASVGDRVTIACRASQNIRNILNWYQQRPGKAPQLLIYAASNLQSGVPSRFSGSGSGTDFTLTINSLQPEDFATYYCQQSYSMPRTFGGGTKLEIK

Key:
[1] = target: T5, human GM-CSF (granulocyte macrophage-colony stimulating factor) (human, UniProt P04141 18-144); test: SPR (ProteOn), mAb captured on protein A, GM-CSF as analyte, Langmuir fit
T5 construct: Soluble cytokine used in ELISA, SPR, TF-1 bioassay and immune complex formation; also called recombinant GM-CSF
T5 sequence (P04141 18-144 limits assumed): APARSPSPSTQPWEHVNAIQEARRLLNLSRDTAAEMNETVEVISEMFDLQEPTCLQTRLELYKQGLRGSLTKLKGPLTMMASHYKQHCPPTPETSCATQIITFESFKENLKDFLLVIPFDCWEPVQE
Procedure: (§1) The kinetics of binding was determined by surface plasmon resonance (SPR). […] HEPES buffered saline (HBS) (10 mM HEPES, pH 7.4, 150 mM NaCl, 3 mM EDTA, 0.005% surfactant Tween-20) was used as running buffer. All injections were made at flow rate of 100 µl/min. […] Injection time and dissociation time were 120 s and 600 s, respectively. Each binding interaction of mAbs with GM-CSF was assessed using a ProteON XPR36 instrument (Biorad) and data processed with ProteOn Manager Software. Ka, Kd and KD were calculated applying the Langmuir fit model.

mouse GM-CSF = target: T1, mouse GM-CSF; test: ELISA
rat GM-CSF = target: T2, rat GM-CSF; test: ELISA
[2] = target: T5, human GM-CSF (granulocyte …); test: ELISA on human GM-CSF
Procedure: All antibodies were recombinantly produced as IgG1 by transient transfection of HEK 293 Freestyle Cells (Invitrogen) using polyethylenimine (PEI). The antibodies were then tested for binding to human GM-CSF by ELISA. […] The EC50 values (ng/ml) were determined by ELISA and calculated for every sample by nonlinear regression analysis using GraphPad Prism 5 software.

FcγRIIb [3] = target: T3, FcγRIIb; test: flow cytometry, TZM-bl cells expressing FcγRIIb, mAb alone (w/o GM-CSF)
Procedure: (§2) Expression of specific FcγRs was assessed by staining TZM-b1 cells with FITC-conjugated anti-CD64 (anti-FcγRI), anti-CD32 (anti-FcγRIIa and anti-FcγRIIb) and anti-CD16 (anti-FcγRIIIa) antibodies (all from BD Pharmingen). Untrasfected and transfected TZM-b1 cells were washed with staining buffer (PBS with 10% Fetal Bovine Serum and 2 mM EDTA) and seeded in 96-well-plates at a density of 50,000 cells per well. […] The LALA versions of all antibodies and a mAb with a different specificity were included as controls. Samples were incubated at 37° C. for 30 min to allow the formation of immune complexes and then cooled down to 4° C. before adding them to TZM-b1 cells for 30 min. Cells were washed twice and stained with anti-human IgG Fcγ fragment specific F(ab′)2 fragment (Jackson ImmunoResearch). Samples were analyzed on BD FACSCanto (BD Biosciences) and median intensity fluorescence was analyzed and compared between samples.
(§3) To address the engagement of Fcγ receptors, immune complexes formed between GM-CSF and multispecific antibodies were tested for their capacity to bind to TZM-b1 cells expressing FcγRIIa and FcγRIIb receptors. Multispecific antibodies were mixed with 0.05 μg/ml of GM-CSF, or staining buffer. Samples were incubated at 37° C. for 30 min to allow the formation of immune complexes and then cooled down to 4° C. before adding them to TZM-b1 cells for 30 minutes. Cells were washed twice and stained with anti-human IgG Fcγ fragment specific F(ab′)2 fragment. Samples were analyzed on BD FACSCanto (BD Biosciences) and median intensity fluorescence was analyzed and compared between samples.

[4] = target: T5, human GM-CSF (granulocyte …); test: SPR; GM-CSF injected at 400, 200, 100, 50, 25 nM and buffer over Ts1GC1; 120 s association, 600 s dissociation
Procedure: as §1
All multispecific antibodies were tested for binding to GM-CSF by ELISA.

FcγRIIa [5] = target: T4, FcγRIIa; test: flow cytometry, TZM-bl cells expressing FcγRIIa, immune complex with high GM-CSF
Procedure: as §3

FcγRIIa [6] = target: T4, FcγRIIa; test: flow cytometry, TZM-bl cells expressing FcγRIIa, mAb alone (w/o GM-CSF)
Procedure: as §2, §3

FcγRIIa [7] = target: T4, FcγRIIa; test: flow cytometry, TZM-bl cells expressing FcγRIIa, immune complex with low GM-CSF
Procedure: as §2, §3

[8] = target: T5, human GM-CSF (granulocyte …); test: ELISA on GM-CSF
FcγRIIb [9] = target: T3, FcγRIIb; test: flow cytometry, TZM-bl FcγRIIb cells; average ratio of binding in presence and in absence of GM-CSF
Procedure: as §2, §3

FcγRIIb [10] = target: T3, FcγRIIb; test: flow cytometry, TZM-bl cells expressing FcγRIIb, immune complex with low GM-CSF
Procedure: as §2, §3

[11] = target: T5, human GM-CSF (granulocyte …); test: cell-based or functional assay
FcγRIIb [12] = target: T3, FcγRIIb; test: flow cytometry, TZM-bl cells expressing FcγRIIb, immune complex with high GM-CSF
Procedure: as §2, §3

FcγRIIa [13] = target: T4, FcγRIIa; test: flow cytometry, TZM-bl FcγRIIa cells; average ratio of binding in presence and in absence of GM-CSF
Procedure: as §3

[14] = target: T5, human GM-CSF (granulocyte …); test: cell-based or functional assay; remark: listed apart in the source

Binder	Kd [1] [pM]	koff [1] [s⁻¹]	kon [1] [M⁻¹ s⁻¹]	binding result (mouse GM-CSF)	binding result (rat GM-CSF)	EC50 [2] [µg/mL]	IC90 less stringent conditions (50 pg/ml GM-CSF, 1,000 TF-1/well) [11] [µg/mL]	IC90 more stringent conditions (500 pg/ml GM-CSF, 1,000 TF-1/well) [11] [µg/mL]	IC90 stringent conditions (50 pg/ml GM-CSF, 10,000 TF-1/well) [11] [µg/mL]	IC90 very stringent conditions (500 pg/ml GM-CSF, 10,000 TF-1/well) [11] [µg/mL]	also measured
B1	690	0.00065	950000	no binding	no binding	0.0594					
B2	680	0.0012	1.7e+06	no binding	no binding	0.308					
B3	180	0.00011	660000	no binding	no binding	0.0614					
B4							0.000352	0.00296	0.000283	0.00281	MFI (FcγRIIb [3]): 350000 MFI; Kd [4]: 87.5 pM; koff [4]: 3.46e-05 s⁻¹; kon [4]: 395000 M⁻¹ s⁻¹; MFI (FcγRIIa [5]): 216000 MFI; MFI (FcγRIIa [6]): 52400 MFI; MFI (FcγRIIa [7]): 118000 MFI; EC50 [8]: 0.027 µg/mL; Average RATIO FcgRIIb (FcγRIIb [9]): 2.51 ratio; MFI (FcγRIIb [10]): 528000 MFI; MFI (FcγRIIb [12]): 1.23e+06 MFI; Average RATIO FcgRIIa (FcγRIIa [13]): 3.18 ratio
B5	380	6e-05	240000	no binding	no binding	0.187					
B6	240	7.7e-05	310000			0.0753	0.177	1.97	0.798	19.8	fold greater concentration than Ts1GC2a, less stringent conditions [14]: 690 fold
